The results in this text go back to PMC5026590.

For assay [1], the target named is RyR2-S2814D (CaMKII phosphomimetic), knock-in mouse (mouse (endogenous in ventricular myocytes)) (UniProt E9Q401). Briefly: FRET or BRET. On the technique in general: In BRET a luciferase serves as donor, and the signal depends on an acceptor being close.
The target of assay [2] is RyR2-S2814A (non-phosphorylatable), knock-in mouse (mouse (endogenous in ventricular myocytes)) (UniProt E9Q401). Briefly: FRET or BRET.

“fluorescent DPc10 peptide (F-DPc10; RyR2 residues 2460-2495) (from UniProt P30957 2460-2495)” registered a fold faster binding (wash-in) vs. S2814A myocytes in assay [1] of 2 fold. For orientation: Kd means the constant that tells how readily two partners part at equilibrium. The low end stands for higher affinity, the high end for lower affinity. Consider “fluorescent calmodulin (F-CaM) (from UniProt P0DP23 1-149) (natural protein)”, for which the values for the Kd in assay [1] and in assay [2] were 72 nM and 20 nM, respectively.
